{"source": "paper PMC7573786", "about": "(Chemical communications (Cambridge, England), 2020)", "key": {"[1]": {"molecular_target": "T1, wild type chromodomain of CBX1 (Chromobox protein 1) (UniProt P83916 20-73)", "experiment": "ITC"}, "[2]": {"molecular_target": "CBX1 chromodomain Y26AzF/F50AzF (UniProt P83916 20-73, Y26AzF, 4-azido-L-phenylalanine (AzF) at 26 and at 50)", "experiment": "fluorescence polarisation"}, "[3]": {"molecular_target": "CBX1 chromodomain Y26AzF/D54AzF (UniProt P83916 20-73, Y26AzF, 4-azido-L-phenylalanine (AzF) at 26 and at 54)", "experiment": "fluorescence polarisation"}, "[4]": {"molecular_target": "T1, wild type chromodomain of CBX1 …", "experiment": "fluorescence polarisation"}}, "data": [{"binder": "ARTKQTARKSTGGKA (trimethyllysine at K9)", "note": "[H3K9me3 peptide 3 (non-TAMRA)]", "values": [{"measurement": "Kd", "setting": "[1]", "result": "5.3 ± 0.4", "unit": "µM"}]}, {"binder": "ARTKQTARKSTGGKA (trimethyllysine at K9; tetramethyl rhodamine (TAMRA) at the N-terminus)", "note": "[TAMRA-H3K9me3 tracer peptide 2]", "values": [{"measurement": "Kd", "setting": "[2]", "result": "48.9 ± 8.7", "unit": "µM"}, {"measurement": "Kd", "setting": "[3]", "result": "50.8 ± 5.7", "unit": "µM"}, {"measurement": "Kd", "setting": "[4]", "result": "1.7 ± 0.2", "unit": "µM"}]}]}
